Reference: patent publication US20260224754A1, “ORAL FORMULATION TO ENSURE BIOAVAILABILITY OF PEPTIDE, PROTEIN, AND NUCLEIC ACID THERAPEUTICS” (THE TRUSTEES OF COLUMBIA UNIVERSITY IN THE CITY OF NEW YORK, priority 2023, published 2026)

Tests used:
muscles of WT male mice = assay: muscle gene expression in WT mice treated with recombinant LCN2; type: in vivo
Text: (§1) Mean±SEM. *, P<0.05, Student's t test.
FIGS. 32A-32B show relative expression levels (fold over vehicle) of MyHCIIa and MyHCIIb in EDL of 12-week-old male Lcn2osb−/− or WT littermates (FIG. 32A) or 8-week-old WT male mice treated with the indicated doses of recombinant Lcn2 or vehicle (n=6/group) for 16 weeks (FIG. 32B). Mean±SEM. *, P<0.05, Student's t test.
FIGS. 34A-34B show relative expression levels (fold over vehicle) of the indicated genes in tibialis anterior of 12-week-old male Lcn2osb−/− or WT littermates (FIG. 34A) or 8-week-old WT male mice treated with 150 ng/g/day recombinant Lcn2 (n=7) or vehicle (n=8) for 16 weeks (FIG. 34B). Mean±SEM. *, P<0.05, Student's t test.
Regarding muscle function, LCN2 is required to maintain lean mass and endurance. […] Endurance measured as exercise distance of 6-month old LCN2−/− and WT littermates individually housed in cages equipped with voluntary running wheels and recorded for 14 days following a 7-day acclimation is shown in FIG. 28B. The increase in energy expenditure of overexpressed LCN2 can be explained in part from the increase in lean body mass, which is correlated to basal metabolic rate. […] Myogenic regulatory factors, namely myf5, mrf4, myoD and myoG. are transcription factors that regulate myogenesis. In the knockout mice, these myogenic factors either decreased or had little change though seems to trend to decrease.
Furthermore, the effect was studied in the specific type of type two muscle fiber. Type IIb is the classical fast twitch, white meat, glycolytic fiber type, whereas type IIa is still considered fast twitch but with oxidative capacity. It is considered in between an in between muscle fiber type between type 1, which are the slow twitch, red meat, oxidative muscle fiber, and classic type IIB. […] Both type II fibers are fast twitch, primarily glycolytic muscle fibers, but the type A ones are characterized by more mitochondria and seem to be more oxidative. […]

C2C12 cells = assay: gene expression and PKA/cAMP in C2C12 cells treated with recombinant LCN2; type: cell-based, mouse
Protocol: as §1
FIG. 37 show relative expression levels (fold over vehicle) of AcylcoA, Mcad and Ucp2 in C2C12 cells treated with increasing concentrations of recombinant Lcn2 for 4 h. Mean±SEM. *, P<0.05, Student's t test.
The in vivo results were confirmed in vitro. […] FIG. 40 summarizes how LCN2 regulate lean body mass with an increase in myogenesis and energy expenditure.

B1: LCN2: bone-derived hormone, also known as oncogene 24p3 or neutrophil gelatinase-associated lipocalin (protein, UniProt P80188 21-198, looked up)
Neutrophil …: QDSTSDLIPAPPLSKVPLQQNFQDNQFQGKWYVVGLAGNAILREDKDPQKMYATIYELKEDKSYNVTSVLFRKKKCDYWIRTFVPGCQPGEFTLGNIKSYPGLTSYLVRVVSTNYNQHAMVFFKKVSQNREYFKITLYGRTKELTSELKENFIRFSKSLGLPENHIVFPVPIDQCIDG
Muscles of WT male mice; EDL, WT male mice, 16 weeks
  myosin heavy chain type IIa versus type IIb: increases the amount of myosin heavy chain type IIa compared to type IIb
Muscles of WT male mice; male WT mice treated with LCN2
  expression of myogenic regulatory factors (myf5, mrf4, myoD, myoG): at least a twofold increase in all myogenic regulatory factors
Muscles of WT male mice; tibialis anterior, WT mice treated with LCN2
  expression of mitochondrial genes: increase in these mitochondrial genes
C2C12 cells; 4 h
  expression of genes associated with beta-oxidation: increase in the expression of genes associated with B-oxidation
  expression of genes that promote mitochondrial biogenesis (NRF1, Pgc1a): increases the expression of genes that promote mitochondrial biogenesis
  expression of genes that promote myogenesis: increases the expression of genes that promote myogenesis
C2C12 cells; Western blot and ELISA
  PKA/cAMP activity: induces PKA/cAMP activity
